In publication PMC3089914, “Structural Basis of the 9-Fold Symmetry of Centrioles” (Cell, 2011):
Where a chain is given by its changes, count along the chain named. Names may count otherwise. Blank lines part the entries; values can stand above or below the molecule they belong to.

How the values were obtained:
[1] = target: C. reinhardtii Bld12p N-terminal domain fragment (crN, residues 1-159) (C. reinhardtii); assay: ITC; dilution: crN at high concentration (1.0-1.6 mM) injected stepwise into buffer; 7°C; 12 mM HEPES pH 7, 100 mM NaCl, 0.7 mM βMe; dimer to monomers
[2] = target: C. reinhardtii Bld12p crN-6HR fragment with F145E (crN-6HR[F145E]) (C. reinhardtii); assay: SEC-MALS; S-200 analytical size exclusion column in line with light scattering and refractive index detectors; PBS with 1 mM DTT; samples of 2-4 mg/ml
[3] = target: C. reinhardtii Bld12p crN-6HR fragment with F145E (crN-6HR[F145E]) (C. reinhardtii); assay: dilution series monitored by CD at 222 nm; 20°C, samples reduced with DTT; fit to a two-state association (monomer-dimer) model; dimer to monomers
[4] = target: C. reinhardtii Bld12p crN-6HR fragment with F145E (crN-6HR[F145E]) (C. reinhardtii); assay: AUC; sedimentation velocity, 20°C, 150 μM protein; 20 mM Tris-HCl pH 7.5, 150 mM NaCl, 2 mM TCEP, 1% glycerol
[5] = target: the molecule itself; assay: crystal structure; X-ray crystallography; sitting drop vapor diffusion
[6] = target: the molecule itself; assay: AUC; sedimentation velocity, 20°C, 300 μM protein; 20 mM Tris-HCl pH 7.5, 150 mM NaCl, 2 mM TCEP, 1% glycerol
[7] = target: the molecule itself; assay: ITC; dilution: 1.6 mM ceN injected stepwise into buffer; 7°C; 20 mM sodium phosphate pH 7, 100 mM NaCl, 1 mM DTT; dimer to monomers
[8] = target: the molecule itself; assay: AUC; sedimentation velocity, 20°C, 200 μM protein; 20 mM Tris-HCl pH 7.5, 150 mM NaCl, 2 mM TCEP, 1% glycerol
[9] = target: the molecule itself; assay: dilution series monitored by CD at 222 nm; 20°C, samples reduced with DTT; fit to a two-state association (monomer-dimer) model; dimer to monomers
[10] = target: the molecule itself; assay: SEC-MALS; S-200 analytical size exclusion column in line with light scattering and refractive index detectors; PBS with 1 mM DTT; samples of 2-4 mg/ml

Kd [1]: 60 µM
Molecule: C. reinhardtii Bld12p N-terminal domain fragment (crN, residues 1-159) (domain or fragment)

stoichiometry N [2]: 2
Kd [3]: 0.5 µM
stoichiometry N [4]: 2
Molecule: C. reinhardtii Bld12p crN-6HR fragment with F145E (crN-6HR[F145E]) (domain or fragment)

B1: C. elegans SAS-6 N-terminal domain fragment with S123E (ceN[S123E]) (domain or fragment, UniProt O62479 1-168, looked up)
chain: MTSKIALFDQTLIASLLQPLSLNQPDFKAYKTKVKLKISEQRNETSGEKELKFEISRSDDFEFLFSETLNNEKYQILARDHDLTVDFDAFPKVIIQHLLCKNIVKNLEEDGEVDARKKAGYHEIADPGKPTEINIILDAEKNFCSFELFSKTPISKGKIFSIKLHAVR
notes: SAS-6, C. elegans, Uniprot ID O62479, N-terminal domain, residues 1-168, Ser123 mutated to glutamate; The crystallised variant; Two molecules in the asymmetric unit; also called ceN variant; ceN-dimer; source: recombinant, purified, crystallised; preparation of the variant not described
binding result [5]: binds

B2: C. elegans SAS-6 N-terminal domain fragment (ceN, residues 1-168) (domain or fragment, UniProt O62479 1-168, looked up)
chain: B1 chain with E123S
notes: SAS-6, C. elegans, Uniprot ID O62479, N-terminal domain, residues 1-168; Cloned in a modified pET15b vector; His6-tag removed by thrombin; source: E. coli BL21 gold (DE3), purified (Ni-NTA, size exclusion chromatography); not shown: His6, N-terminal, cleaved
stoichiometry N [6]: 2
Kd [7]: ~110 µM

B3: C. elegans SAS-6 N terminus plus coiled coil fragment (ceN-CC, residues 1-414) (domain or fragment, UniProt O62479 1-414, looked up)
chain: MTSKIALFDQTLIASLLQPLSLNQPDFKAYKTKVKLKISEQRNETSGEKELKFEISRSDDFEFLFSETLNNEKYQILARDHDLTVDFDAFPKVIIQHLLCKNIVKNLEEDGEVDARKKAGYHSIADPGKPTEINIILDAEKNFCSFELFSKTPISKGKIFSIKLHAVRGDHLISHLLKICSSQAVKLSTFYKSADELASLRQKCGDLEKQVEKLSGVKEEFEEMSEKFKELEDEVELVKEERENIRLLVEDKEDEVADLKQDTESLQKQLEENQEELEIVGNMLREEQGKVDQLQKRNVAHQKEIGKLRAELGTAQRNLEKADQLLKRNSQQQNQQSLDMRKLGELEADLKEKDSMVESLTETIGILRKELENEKLKAAENMDSFEKLSMENENLKEKIAHYRAQRFSPAPSGL
notes: SAS-6, C. elegans, Uniprot ID O62479, N terminus plus coiled coil, residues 1-414; A His6 form from pET30a was used for electron microscopy only; source: E. coli BL21 gold (DE3), purified (glutathione sepharose, eluted by prescission protease, dialysis); not shown: GST, N-terminal, cleaved
binding result [8]: binds

B4: C. elegans SAS-6 N terminus plus coiled coil fragment with I154E (ceN-CC[I154E]) (domain or fragment, UniProt O62479 1-414, looked up)
chain: B3 chain with I154E
notes: SAS-6, C. elegans, Uniprot ID O62479, residues 1-414, I154 exchanged by glutamate; source: preparation of the mutant not described
stoichiometry N [8]: 2

B5: C. elegans SAS-6 coiled-coil domain fragment (ceCC, residues 181-408) (domain or fragment, UniProt O62479 181-408, looked up)
chain: SSQAVKLSTFYKSADELASLRQKCGDLEKQVEKLSGVKEEFEEMSEKFKELEDEVELVKEERENIRLLVEDKEDEVADLKQDTESLQKQLEENQEELEIVGNMLREEQGKVDQLQKRNVAHQKEIGKLRAELGTAQRNLEKADQLLKRNSQQQNQQSLDMRKLGELEADLKEKDSMVESLTETIGILRKELENEKLKAAENMDSFEKLSMENENLKEKIAHYRAQRFS
notes: SAS-6, C. elegans, Uniprot ID O62479, coiled coil, residues 181-408; Cloned in pET15b; His6-tag removed by thrombin; Monomer mass 27.4 kDa as printed; also called SAS-6 ceCC; source: recombinant, bacteria; not shown: His6, N-terminal, cleaved
Kd [9]: 0.9 ± 0.1 µM
stoichiometry N [10]: 2
